From the supplement of paper PMC12042874
± gives the uncertainty stated by the source.

Experiment: amyloid nucleation score (Sup35N fusion, yeast selection) (log enrichment); library NNK3; higher = more nucleation; inactive = no reads after selection
Method in brief: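 Psi-negative yeast expressed Sup35N fused to peptides of 20 random codons. They were induced 24 hours with 100 μM copper sulfate, grown 7 days at 30°C without adenine and uracil, and their plasmid inserts from input and output were Illumina-sequenced. The nucleation score is the DiMSum log enrichment of output over input reads, centred on the mode score of non-aggregating sequences. Sequences with under 100 input reads were excluded.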

NKEMIFANYSAGRRYVRYST
amyloid nucleation score: inactive

NKIVNECWHLICSFKLGNLQ
amyloid nucleation score: inactive

NKSYNDRARYVARGRDI
amyloid nucleation score: inactive

NKVFMEDQGLKVHWV
amyloid nucleation score: inactive

NKWYSNLQNCCCSLNHTGEG
amyloid nucleation score: 0.624 ± 0.23

NLAAEASVLVYEDELGCRHG
amyloid nucleation score: inactive

NLAFAVYARTRLKLSPASCV
amyloid nucleation score: inactive

NLCNWLSCSRTSCNLRLR
amyloid nucleation score: inactive

NLDIFGNKMLMGRRGMLNMS
amyloid nucleation score: inactive

NLDLGVDLGMQPIGSIKKST
amyloid nucleation score: inactive

NLFLGCQN
amyloid nucleation score: inactive

NLFLRFIVTLWDRFCPYFYQ
amyloid nucleation score: inactive

NLKILPAVDHCSDHPMERNE
amyloid nucleation score: inactive

NLKKARSTSFIDEPECRPRP
amyloid nucleation score: -0.406 ± 1.1

NLLDNRIFYHMD
amyloid nucleation score: inactive

NLLGTVIIFLRDGSS
amyloid nucleation score: 2.13 ± 0.064

NLLYSCVYRHQPLYPAMDFP
amyloid nucleation score: inactive

NLMEYSAC
amyloid nucleation score: 0.182 ± 0.28

NLMGRCTEFRKYI
amyloid nucleation score: inactive

NLMWL
amyloid nucleation score: inactive

NLSSCIFVVS
amyloid nucleation score: inactive

NLYLSDNVCRVMKASVWVHA
amyloid nucleation score: inactive

NMKSCFHRMDPHWGTGFHSL
amyloid nucleation score: inactive

NMLMMWCFLVSYNEKMRKTV
amyloid nucleation score: inactive

NMMAYFVFLGMKANFYMWVW
amyloid nucleation score: inactive

NMVISYGVWYCDRKD
amyloid nucleation score: 0.84 ± 0.2

NMVYLGDLTITMSTFDAFR
amyloid nucleation score: 0.53 ± 0.18

NMYLSMSLIFNTNYLPGMIS
amyloid nucleation score: inactive

NMYVNTSCIVYFE
amyloid nucleation score: 3 ± 0.058

NNMVHVVDKFFSLILVMVFS
amyloid nucleation score: inactive

NNSASNPILFGRYVTASREY
amyloid nucleation score: inactive

NNTDCYESNVVFFSTAIHLS
amyloid nucleation score: 1.6 ± 0.12

NNTLV
amyloid nucleation score: inactive

NNTNAQKLLINV
amyloid nucleation score: inactive

NNTSGNLVCFSVKCNVIVPY
amyloid nucleation score: 2.42 ± 0.056

NNVKRSSPDSQVPSQVSMRF
amyloid nucleation score: inactive

NNVVVL
amyloid nucleation score: inactive

NPDCSQTMARGLRNSLVFLQ
amyloid nucleation score: inactive

NPFMW
amyloid nucleation score: inactive

NPLFMQSLKLRCCRNLRFRS
amyloid nucleation score: inactive

NQEQWWLATAYPNVSWSIKL
amyloid nucleation score: inactive

NQGWTCWCVSCCLGVKIVMI
amyloid nucleation score: inactive

NRASSVSCS
amyloid nucleation score: inactive

NRAVNFIVWWMYL
amyloid nucleation score: inactive

NRDNAEQYYRPTVTVCSEGW
amyloid nucleation score: inactive

NRFCLRSTLSYSWYGDRSWA
amyloid nucleation score: 0.185 ± 0.7

NRFLNIQKRSTPLNLPSSSV
amyloid nucleation score: inactive

NRGNSIRRDNWFRVILRTCH
amyloid nucleation score: inactive

NRILGGNLYVNVIDRIGGMV
amyloid nucleation score: inactive

NRLNGSLILDRHLL
amyloid nucleation score: inactive

NRMRPIDNLGHISMFGVLGG
amyloid nucleation score: inactive

NRQVNCSFEGFSNRSKVYAY
amyloid nucleation score: inactive

NRRFITYFSFRSPEVYKMQY
amyloid nucleation score: inactive

NRVYA
amyloid nucleation score: inactive

NRWTIPCFCGRKL
amyloid nucleation score: 1.12 ± 0.089

NRYIGNIYEKNGNSNFKPSI
amyloid nucleation score: inactive

NRYLLRVVLYNSLTRLTVGF
amyloid nucleation score: inactive

NSCSVVMFPYH
amyloid nucleation score: inactive

NSDMESDSHSNKVVRYLCGP
amyloid nucleation score: inactive

NSFDNFFSLNLNTGAYY
amyloid nucleation score: inactive

NSFDSMGSMFANRYRLNFPR
amyloid nucleation score: inactive

NSGCQMFL
amyloid nucleation score: inactive

NSGHLVLGCMYIFSNGFVDR
amyloid nucleation score: 1.22 ± 0.14

NSIQEDV
amyloid nucleation score: inactive

NSKSVSWMFMPLQAFLCLIG
amyloid nucleation score: inactive

NSKYLLD
amyloid nucleation score: inactive

NSLFSNCARLYGNRGTLGLS
amyloid nucleation score: inactive

NSLNMRFTLQQTLMGQMNYV
amyloid nucleation score: inactive

NSMHAATWLEARRRLDKEGF
amyloid nucleation score: -0.753 ± 1.3

NSMSKVKMLVRSISTIEEVK
amyloid nucleation score: inactive

NSRFIMHHVGRAFDCDAYLF
amyloid nucleation score: -0.194 ± 0.8

NSSAKGFVQV
amyloid nucleation score: inactive

NTCDAPMSNGYAWWD
amyloid nucleation score: -0.399 ± 0.75

NTIGNNVKYETRCNQSV
amyloid nucleation score: inactive

NTRSPAESMHHPLMAMAVKN
amyloid nucleation score: inactive

NTSYLDASSNGNQRCIHSHK
amyloid nucleation score: inactive

NTTCYIVRVMYVPHG
amyloid nucleation score: inactive

NTYLVWIPRSFGQGKSNCLK
amyloid nucleation score: inactive

NVDHRTKSWLINWFTSLELL
amyloid nucleation score: inactive

NVFQVALRNSLSMLGSGMRM
amyloid nucleation score: inactive

NVILYGKNLS
amyloid nucleation score: inactive

NVNLVSIVVVIMDEKDKVKE
amyloid nucleation score: 2.84 ± 0.07

NVTCGRLTPSRDLKHAPVI
amyloid nucleation score: -0.32 ± 1.1

NVVCNDPPPGVYEDLGWTGI
amyloid nucleation score: inactive

NVVIFML
amyloid nucleation score: 2.47 ± 0.076

NVWSVVFVSCLIIYGCPKWM
amyloid nucleation score: 1.31 ± 0.087

NWGVYCVRDLWYRHSDMYHR
amyloid nucleation score: inactive

NWLVSWFLFFPNSPLFCYHW
amyloid nucleation score: inactive

NWRMVQNQVVWVLRLNTYHY
amyloid nucleation score: inactive

NYARTFSRKRMVQKTRSGKG
amyloid nucleation score: -0.077 ± 0.4

NYAYPIPIRLLIEAWRMGTA
amyloid nucleation score: inactive

NYGQALHWLLRGGSMWSQGT
amyloid nucleation score: inactive

NYIDGFFFVHWAGTLMHKDC
amyloid nucleation score: inactive

NYLVVLMGSTCMKVRPLGVS
amyloid nucleation score: inactive

NYNRAPMGTAET
amyloid nucleation score: inactive

NYSRPEL
amyloid nucleation score: 0.782 ± 0.17

NYVICVYFMAGVSACMTLLV
amyloid nucleation score: inactive

PCDQD
amyloid nucleation score: inactive

PCLFTSSVSIFYNDALLVLS
amyloid nucleation score: inactive

PCNFL
amyloid nucleation score: inactive

PCQDWARYAPGLPLPMGLAL
amyloid nucleation score: -0.293 ± 0.89

PCRTDICR
amyloid nucleation score: inactive

PDINM
amyloid nucleation score: inactive

PDNGLRAIMTAGPVFSRQSN
amyloid nucleation score: inactive

PEMFGRSWARDTRKVTVLAS
amyloid nucleation score: inactive

PFDVHKRR
amyloid nucleation score: inactive

PFENR
amyloid nucleation score: inactive

PFIGVSMLSMG
amyloid nucleation score: -0.47 ± 0.87

PFKFFW
amyloid nucleation score: inactive

PFLYGRYFVAISNS
amyloid nucleation score: inactive

PFPQWEKHYYFFAMNYFHFS
amyloid nucleation score: 1.75 ± 0.061

PFWWPRKQLYVSQSRKTTAS
amyloid nucleation score: inactive

PGCTTN
amyloid nucleation score: inactive

PGDTQITYTGLSEFWCPGVA
amyloid nucleation score: inactive

PGDVRLGDIVLIFFLRM
amyloid nucleation score: 0.781 ± 0.26

PGITNLWLEMSHV
amyloid nucleation score: inactive

PGREIVVPHFR
amyloid nucleation score: inactive

PGSGIHNWMNCYRSLKE
amyloid nucleation score: inactive

PGVLLVWLSYSGSRLLS
amyloid nucleation score: inactive

PGVYKNVAFLR
amyloid nucleation score: inactive

PGYSFKVSA
amyloid nucleation score: -1.06 ± 2.5

PHFQTFRDYVLCGISFSYCE
amyloid nucleation score: 1.46 ± 0.1

PHNLNGPS
amyloid nucleation score: -0.68 ± 1.9

PHSQDMVWQCCWGGATAEES
amyloid nucleation score: -0.047 ± 0.72

PIFWR
amyloid nucleation score: inactive

PIQGAMTRNYRFRTGRGFCL
amyloid nucleation score: 0.882 ± 0.2

PKAGALQQFMMRHSSHFQLS
amyloid nucleation score: inactive

PKMSPSAMRSCDDLASPFIS
amyloid nucleation score: inactive

PLCWNLNIRDTGIYRPRMRP
amyloid nucleation score: inactive

PLFFMPGNKWTYFSKSSADT
amyloid nucleation score: inactive

PLIWCWKIVGRAWFAESRIL
amyloid nucleation score: inactive

PLPPPRKAMASLFVFLAWMA
amyloid nucleation score: inactive

PLRSTKSIIVLMDEMRLIAN
amyloid nucleation score: inactive

PLTFRTMVFKALVEAWRKFN
amyloid nucleation score: inactive

PMMGSLYFVP
amyloid nucleation score: inactive

PMMWSVVVYNTNIYGLVCAM
amyloid nucleation score: 1.26 ± 0.08

PMPCIYVSGVWHRVLLCFLS
amyloid nucleation score: inactive

PNARKMCMLFVTECFKVVPK
amyloid nucleation score: inactive

PNDVRNAFFCPPPTKKPTVA
amyloid nucleation score: inactive

PNGSEIENLMYRGTLSC
amyloid nucleation score: inactive

PNNSIHQIICYIWNEYTWSC
amyloid nucleation score: 2.55 ± 0.059

PNVMNNFVCITDPIPVGSMW
amyloid nucleation score: inactive

PPKGKSWMLIVVNRLGEDEQ
amyloid nucleation score: inactive

PPLYSRYLSFNGMTKVPWIC
amyloid nucleation score: inactive

PPTLQMVTVVGPKGWKVMFS
amyloid nucleation score: inactive

PQASVDQFLYFPIWTYLGIN
amyloid nucleation score: inactive

PQCESLMYCGD
amyloid nucleation score: inactive

PQHADVAFVT
amyloid nucleation score: inactive

PQPARLDQGGYISDMYCYVI
amyloid nucleation score: -0.362 ± 1.3

PREWLGVLLMTVLNFWMTVV
amyloid nucleation score: inactive

PRGLVALGFGAFSKGPHGRS
amyloid nucleation score: inactive

PRLNMGCMLFSEYTYCQMIL
amyloid nucleation score: 1.1 ± 0.14

PRQRLMMWSRRG
amyloid nucleation score: inactive

PRWETSYLIL
amyloid nucleation score: inactive

PSKFVHKSDLCDNGYLPCTR
amyloid nucleation score: inactive

PSLCFSAVQLRLPRDVFLKY
amyloid nucleation score: inactive

PSLLQVHKCLRIRLIWRWLW
amyloid nucleation score: inactive

PSRIGSDFSRFLSEECGQLR
amyloid nucleation score: inactive

PSTDVILSANWDDRRSGLYG
amyloid nucleation score: inactive
